The test system of data set [1] is SARS-CoV-2. The data set can be described thus: Plaque assay of supernatants from SARS-CoV-2 infected kidney organoids treated with remdesivir. Conditions: 2 μM remdesivir immediately after infection with SARS-CoV-2 or SARS-CoV-2-mNG; vs untreated organoids. In kind it is cell-based. How it is done: Mean±SEM of three independent experiments. Paired t-test, **p<0.01.
To investigate the efficacy of remdesivir, kidney organoids were infected with SARS-CoV-2 or SARS-CoV-2-mNG, and then treated with a 2 μM dose of remdesivir immediately after infection (FIG. 5A).

For data set [2], the system named is kidney organoids. The note with it: short term, at the efficacious dose (2 μM).
For data set [3], the system named is COVID-19 patients. Conditions: cited from earlier work.
For data set [4], the system named is kidney organoid podocytes. The data set can be described thus: Time-lapse imaging of GFP-PODXL kidney organoids under prolonged treatment (podocyte integrity, organoid size). In kind it is cell-based, human. How it is done: It was determined whether podocytes are damaged by prolonged IFN-γ treatment. As shown at FIG. 24A, an example time course for prolonged IFN-γ treatment involves regular imaging of organoids during treatment of mature organoids with IFN-γ prior to fixation. […] Further, podocyte junctional tracks appear intact with 7d IFN-γ treatment (results from confocal immunofluorescence microscopy of control versus 7d IFN-γ treatment; markers: ZO-1, Synaptopodin, ZO-1+Synaptopodin, APOL1, and DAPI). Based on these observations, it was concluded that podocytes appear largely undamaged by prolonged IFN-γ treatment.

The subject of data set [5] is APOL1 expression. The data set can be described thus: APOL1 expression in kidney organoids on agonist (IFN-γ) treatment, immunofluorescence. In kind it is cell-based, human. How it is done:
Experiments were performed to determine APOL1 localization in normal human kidney and stimulation in kidney organoids.

The test system of data set [6] is kidney organoid endothelial networks. As to the kind of experiment: Endothelial networks and tubular structures of kidney organoids under prolonged IFN-γ treatment. In kind it is cell-based, human. Conditions: prolonged (7d) treatment. The text has this: As such, it was next determined whether JAK ½ inhibition prevents IFN-γ-induced loss of endothelial networks and disorganization of tubular structures. […] As a result, it was concluded that JAK ½ inhibition prevents IFN-γ-induced loss of endothelial networks and disorganization of tubular structures.

The mark [7] stands for this setting: prolonged treatment of mature organoids.

Turning to `CCC(CC)COC(=O)[C@H](C)N[P@](=O)(OC[C@H]1O[C@@](C#N)(c2ccc3c(N)ncnn23)[C@H](O)[C@@H]1O)Oc1ccccc1` [remdesivir], the “reduced replicated virus in supernatants (plaque assay)” value in data set [1] is on record as 71.4%±18%. In addition, the “safety in kidney cells” value in data set [2] is given as “supports short term safety”. Besides, the tolerability entry in data set [3] (AKI and CKD patients) is “tolerated well”. In addition, in data set [3] (remdesivir-treated patients), the “risk of developing AKI” value is “increase chances of developing AKI”.

For the molecule tunicamycin [reference compound], the organoid size result in data set [4] (setting [7]) was “shrink in size”.

B1: IFN-γ: cytokine interferon gamma, used to induce APOL1 expression (protein, UniProt P01579 24-161, looked up)
Interferon gamma: QDPYVKEAENLKKYFNAGHSDVADNGTLFLGILKNWKEESDRKIMQSQIVSFYFKLFKNFKDDQSIQKSVETIKEDMNVKFFNSNKKKRDDFEKLTNYSVTDLNVQRKAIHELIQVMAELSPAAKTGKRKRSQMLFRG
For the molecule B1, in data set [5] (24-hour screen), the “APOL1 agonist screen result” value is on record as “strong agonist for APOL1 expression”. The “saturating dose for APOL1 expression” value in data set [5] (24 hr, fluorescent intensity of APOL1 in organoids) amounted to 100 ng/mL. The “APOL1 expression on titration” value in data set [5] (IFN-γ titration) is on record as “dose-responsive activation of APOL1 expression”. The “effect on endothelial networks and tubular structures” value in data set [6] is “pronounced loss of endothelial networks and tubular structures”. For the same molecule, the podocyte junctional tracks result in data set [4] (7d treatment, ZO-1, Synaptopodin staining) is on record as “appear intact”. For the same molecule, in data set [4] (setting [7]), the “loss of GFP-PODXL” value is recorded as “does not result in enhanced loss of GFP-PODXL” and the organoid size entry is “no significant change”.

(Values after US20250237641A1 (priority 2021, published 2025).)
